Source: the DeepSol protein solubility set

assay: soluble on expression in E. coli; label from the status in PepcDB or PDB records

| Sequence | soluble on expression in E. coli |
| --- | --- |
| MKTLFLQYPACSTCQKAKKWLIENNIEYTNRLIVDDNPTVEELKAWIPLSGLPVKKFFNTSGVVYKELKLSSKLPTMTEEEQIALLATNGKLVKRPLVVTERFVLVGFKPEEWEKL | not soluble |
| SLVKLSTPLRVVTTLPHQPGRTGYIVFKKVPESFRCDSIASFYRRVRRSMGLREAVVFLTAAEVDRPLHEVIDEPETHIIATVGLKPPACPGGTAGAPRPGTINIAVATSAGLSRAGAIDLLRVVAEAKAAAAAEALLPCLHRATGTATDAIAVLHTPGATDFSGFYTRLGGLVGRSLYFALVDAAVARRGPDSLLRALTGMSMEGLLELFRRVYMQSPIPGVPVEEALGRAGRMLERMMRDPNVAALLIAARELDLHGSAGAIPGLSRSGYKGDSKAIVADELLAAALAEYLAGFKGLLATIWVEKLKSMGLADAGLPMFMDDMVSAVVGSLVSRLHDEVREG | soluble |
| ASGRRAPRTGLLELRCGAGSGAGGERWQRVLLSLAEDALTVSPADGEPGPEPEPAQLNGAAEPGAAPPQLPEALLLQREVSPYFKNSAGGTSVGWDSPPASPLQRQPSSPGPQPRNLSEAKHVSLKMAYVSRRCTPTDPEPRYLEICAADGQDAVFLRAKDEASARSWAGAIQAQIGT | soluble |
| MNIVSWKDANDEVAGGATTRREREVKEDQEETEVRATSGKTVIKKQPTSISSSSSSWMKSKDPRIVRVSRAFGGKDRHSKVCTLRGLRDRRVRLSVPTAIQLYDLQERLGVDQPSKAVDWLLDAAKEEIDELPPLPISPENFSIFNHHQSFLNLGQRPGQDPTQLGFKINGCVQKSTTTSREENDREKGENDVVYTNNHHVGSYGTYHNLEHHHHHHQHLSLQADYHSHQLHSLVPFPSQILVCPMTTSPTTTTIQSLFPSSSSAGSGTMETLDPRQMVSHFQMPLMGNSSSSSSQNISTLYSLLHGSSSNNGGRDIDNRMSSVQFNRTNSTTTANMSRHLGSERCTSRGSDHHM | soluble |
| MLLDFPHGQFGFTNSCIIAVIWLSLSPTLNRGQLNLDRFKFWLPTSQLLVLDVCLFDAFALEHHHHHH | not soluble |
| GMSTQENVQIVKDFFAAMGRGDKKGLLAVSAEDIEWIIPGEWPLAGTHRGHAALAALLQKASEMVEISYPEPPEFVAQGERVLVVGFATGRVKSTNRTFEDDWVFAITVRKSKVTSIREYIDTLALARATNFNAT | soluble |
| MSQEQLVAVNELNENLGKVLIKIARDSIANKLGILKINLEDYLSSLNDPILNKKGLAFVTLETYYGNSTSLRGCIGYVEAVAPLKEIVSKAAIAAAFSDPRFPPLSKGEFDNIIIEVTVLTKPQEIDVENRWELPKKIKVGEDGLIVEYGILYSGLLLPQVPMEYCWDEETFLAETCIKAGLEPDCWLNNKVKIKKFQGIIFREEKPKSEKILIIKPSEVKCKKEEISLL | soluble |
| MAADVGQALAFLQQVKTTQGASIYEGLKAALAKVLEDRPVNAVEALETSVLSTPPAANLSVPLVPAASAAAAAAAVAKASLFGDPEPVLDPESGEPIDPDAPNEFECEDVEGDGDLLDGLGVGLGRQEMYAAMLAVKRLGEDAKRGVSTVRFFGKFFGTQADYYVFETTLQSNPDMPEAPEGTIPLEPYGEGVNAYIYFVSNTLGGPLQQLPYVTPEQIKASRLLRRYLTGRLDAPVSAFPAFPGNEANYLRALIARISAATVCCPRGFFTADDDSAELSANDEWVPLKGREMALPVNWSHRYAHLKGQGRTVTHKRDPPDEEEEPEKNFWTAEEMEAGPPPLATLDTDAPLPAATGDKVPPPAWSPVFASASVTTRNQVAGVRSNRWPGAVCACAGRHFTSMYVGWGIKAGGEWSPCPPPPPVPQWGAPAAGVEGGQQLLLECNDLPPKPAPPEEEDE | not soluble |
| MKPSQWTLRWVTLCGCGMLAASAAAVELPGTVQPSQLDERFKPRSEPQAKPEAPLVVPKQVAPQGSEQIRFKLREIRIEGNTRYDKAVLESYYQHMLGEQVSLAELVDLANRLTAKYRQDGFLLTQVVVPEQSIEGGKVRLQVIEGYLEHVQIKGTVDGPRVRVEELLAPLTEKRPLDADTLERGLLLVGDLPGVNVQSVLSPGQALGSSNLDVALQQQRYEGFVSLDNRGSHYTDPTTLAFGATEFSRLGFYEQIDVLGAISPFSDATRYIQLRGTLPLGGMFAGDTLQIMGSYSKVNPDIPDSVFPFDSVSKSTEGSISYNHPFIRSRSQNLSGGLALQWKDTETRLRDFASDASNPGRDHVRVFQQRLTYDWVDRWMGINLAEVRNNIGLDMWGATKKDDERRSREVADGRFVYLNGNIGRLQGLGGPWSVYGELQWQYSFDPLLPSERFGVGGSGIGRGFAPGNITGDRGFALKLEPRYGQAVGYSWLRSYQAYAFYDWGKTYNLDVDDDEQQKLGSIGAGVRFNLTDQLSFNPEIARQVIGEPADQRDGKRETRVLFNVVARF | not soluble |
| MAHHHHHHMARTLLLNIQHHQPDLGLSEVDIELGMLAGLLHDVGHGPFSHLFEDVVSRRCGIEFNHEDMSEKIARRVLRDLVPQTHVDVVVGLMRGKALLGITYGEIISNKRNGIDVDRLDYFIRDSMCCFGKPTVDVRVNRLFNSARIVCEEGQWQLGFEQKLALSLREIFTLRAKLHKNVYQHQVTKAIGHMIGDVIHAAAPHFRVGGHTLVECAQDETLFLKLGDWILEAIEASEAPHLAEAHAILHRLRTRDIYRVAYSSALDITMRAPMAAVDWPAAILEHAHPSFPLNADDFIAEVVVINQGKGTEDPLESVLFFNPKKPSQPLTRLKPAEDLKHGSPLFTPLQFEERTLMVFERRPTNGAVQRACERLNADPKYAAFFTDSLPFYNTK | soluble |
| MIQIEDVVVSFDVLREKFLCNLDACKGECCIEGDAGAPVELDEVEKLEEVLPIIWEELSPEARAVIEKQGVVYTDQEGDLVTSIVNNKDCVFTCYDEKGCCYCAIEKAYRDGKTDFYKPVSCHLYPIRIGDYGPYKAVNYHRWDVCKAAVLLGKKENVAVYQFLKEPLIRKFGEKWYQELEVAVKELKAHDMI | not soluble |
| MRYDVVVVGSGVAGPIVARNVAKAGFSVLLVDKKPAIGAPKQCAEGLTINAFKQFDIPYDKRFINREIYGAKIYSPSGYTAELRYKEVSGVILERKVFDKMLAYYAAKAGAEVLARTEVVDVIRREGKIVGVKAKHEGEPMEIEAKVIVAADGVESTIARKAGIDTYAPPHEFDSGYEYEMIIEGFDPDLIHLFFGNEVAPRGYVWVFPKDEDRANVGIGINSDNEKTAKYYLDKWLKENNIPRNKILEVNVGLIPVGGFVKELVKENVLVVGDAARQVNPIHGGGMAEAMKASTIASKWIIKALEEENLELLKNYKEEWWKTEGPRMEKLLRLRRAMEKLTDEDLDVFVQLVSGTDLEKIAGGNYIEVVKALMKHPKVLMSRRRLEILKALLLEHHHHHH | soluble |
| MSENPVVSDKKPGPSKDSSFFSDLYDNLNQNPYFNAGAGLAGIGIAMSFLRRTAQISNTYFRRRFMINLQINNEDAAYPWLLDFINNRSATQTRNLSANTVVHQAESGKTELSISFLPGHGTHFFVHDYRWIKVERQREKQVIQRDGIRTPFETVTLTTLGSDVKFFKRMLEQSAKEAIDNAETGLVIYQAVGPQWIRFGVPRKKRDIESVILDGRICEELVEDFQEFISSATWYADRGVPYRRGYLFYGPPGTGKSSFISALASHFGYSVCLLSLSERTLDDDRLNHLLNTAPPNSVVILEDIDAAFVSREDPMSNHPAYQGLSRVTFSGLLNALDGVACAEERLTFMTTNYVERLDPALIRPGRVDRKQYFGNATDGMLSKMFSRFYRQPSDSVLADEFVKRVSEHKTELSPAMIQGHFLMYKQDPRAALDNIKNMFKTV | not soluble |
| MGSDKIHHHHHHMSDDELLFAEEDPSDNVGEGIGRAPWVILVVDDDTEVHALSRLLLSEIEFKGRRVAMYSAYSAAEARAMLGRIDDVAVILLDVVMETDDAGLKLVRTIRETMNNRDVRIILRTGQPGQAPEREVIETYDINDYKSKTELTAQKLHTALVAALRAYDDIMALVLSRQGLRKILDAAASLYRQRSMELFAAGVLTQINALLGGDRDGILCVQSRKEQADEDDPAGAMVVLAASGAYERLVGKRVDELPESPVISLIREAAASRTSRHGSHASALYMPTGDGRETVVFLHAAEPLKAQDRALMQLFCDNISAGFDTVCEIDDLRRENVRLRARLGEAKAP | not soluble |
| MKVEEILEKALELVIPDEEEVRKGREAEEELRRRLDELGVEYVFVGSYARNTWLKGSLEIDVFLLFPEEFSKEELRERGLEIGKAVLDSYEIRYAEHPYVHGVVKGVEVDVVPCYKLKEPKNIKSAVDRTPFHHKWLEGRIKGKENEVRLLKGFLKANGIYGAEYKVRGFSGYLCELLIVFYGSFLETVKNARRWTRRTVIDVAKGEVRKGEEFFVVDPVDEKRNVAANLSLDNLARFVHLCREFMEAPSLGFFKPKHPLEIEPERLRKIVEERGTAVFAVKFRKPDIVDDNLYPQLERASRKIFEFLERENFMPLRSAFKASEEFCYLLFECQIKEISRVFRRMGPQFEDERNVKKFLSRNRAFRPFIENGRWWAFEMRKFTTPEEGVRSYASTHWHTLGKNVGESIREYFEIISGEKLFKEPVTAELCEMMGVKD | soluble |
| LGTLFFSLEYNFERKAFVVNIKEARGLPAMDEQSMTSDPYIKMTILPEKKHKVKTRVLRKTLDPAFDETFTFYGIPYTQIQELALHFTILSFDRFSRDDIIGEVLIPLSGIELSEGKMLMNREII | soluble |
| MPMFIVNTNVPRASVPDGFLSELTQQLAQATGKPPQYIAVHVVPDQLMAFGGSSEPCALCSLHSIGKIGGAQNRSYSKLLCGLLAERLRISPDRVYINYYDMNAANVGWNNSTFALEHHHHHH | soluble |
| DEPNQPSTPEAVTKTVTIDASKYETWQYFSFSKGEVVNVTDYKNDLNWDMALHRYDVRLNCGESGKGKGGAVFSGKTEMDQATTVPTDGYTVDVLGRITVKYEMGPDGHQMEYEEQGFSEVITGKKNAQGFASGGWLEFSHGPAGPTYKLSKRVFFVRGADGNIAKVQFTDYQDAELKKGVITFTYTYPVK | soluble |
| MSLGNPHMPLLLALSKGFVEPVYRAAFLASAASSGVLAALAVRPCDLESLAERLDIDDEDLPRLKEWLDMGIRLGDLGKREGCYKLRSLPAKALAQPGNDAIAAALEEVLRFHVPALLNGPRMLREGRRFSLDDQDGLVIARSTRVIQPLVEEAIARTLDRNAPVRLLEVGCGSGTYVRYAAELNPRLSALAVDLQQDVADSAAANMAEWGLTDRVETRQADLRTLDAQPQFDLVTLHNNIYYFPEAERVEALRRAHDLLAPGGRLLLTTSCKGGNVGLEALNLWFTYADFGGPLPQADALADQLRQAGFDDVEATRIVPGEQFHAFTGTSKRVAHAEGHHHHHH | not soluble |
| AIARALESTPLTGDVDWKSPLGSRSTWARLREQTRHCTFYRTYCFKASLKQLEEVTEEHVTYVGDCAALPPSPFLCVLLAYDCCSPSREEVAAHLDCSKNVYWRAIVATWIRWKESRAEQVYQLLDPLYRDYRPIKVRQKDNSYHNSYLDVFIDQLLRYRCALVSLEEPFVLDVIPFPHLPPRYELEARGVLPQREYAAPADDDDDDDAVSRPRLQQ | soluble |
| MKKIAIFAGDGIGPEIVAAARQVLDAVDQAAHLGLRCTEGLVGGAALDASDDPLPAASLQLAMAADAVILGAVGGPRWDAYPPAKRPEQGLLRLRKGLDLYANLRPAQIFPQLLDASPLRPELVRDVDILVVRELTGDIYFGQPRGLEVIDGKRRGFNTMVYDEDEIRRIAHVAFRAAQGRRKQLCSVDKANVLETTRLWREVVTEVARDYPDVRLSHMYVDNAAMQLIRAPAQFDVLLTGNMFGDILSDEASQLTGSIGMLPSASLGEGRAMYEPIHGSAPDIAGQDKANPLATILSVAMMLRHSLNAEPWAQRVEAAVQRVLDQGLRTADIAAPGTPVIGTKAMGAAVVNALNLKD | soluble |
